Results taken from CN114075288A (CHIA TAI TIANQING PHARMACEUTICAL GROUP CO LTD, dated 2022).

T1: hPD-L2-His (ACRObiosystems，目录号:PD2-H5220) (human, UniProt Q9BQ51 20-219)
T1 construct: Bought protein (ACRObiosystems PD2-H5220); also called 人PD-L2抗原; 重组体hPD-L2-His蛋白; not shown: His tag
T1 sequence (looked up): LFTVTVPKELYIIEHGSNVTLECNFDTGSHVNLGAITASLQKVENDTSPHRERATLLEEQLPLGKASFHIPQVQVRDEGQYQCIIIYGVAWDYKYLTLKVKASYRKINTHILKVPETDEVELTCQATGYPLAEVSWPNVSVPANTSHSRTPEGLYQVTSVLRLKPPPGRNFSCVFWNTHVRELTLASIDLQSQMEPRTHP

T2: 人PD-L2，稳定表达于U2OS细胞系 (PD-L2-U2OS) (human, UniProt Q9BQ51 20-273)
T2 sequence (looked up): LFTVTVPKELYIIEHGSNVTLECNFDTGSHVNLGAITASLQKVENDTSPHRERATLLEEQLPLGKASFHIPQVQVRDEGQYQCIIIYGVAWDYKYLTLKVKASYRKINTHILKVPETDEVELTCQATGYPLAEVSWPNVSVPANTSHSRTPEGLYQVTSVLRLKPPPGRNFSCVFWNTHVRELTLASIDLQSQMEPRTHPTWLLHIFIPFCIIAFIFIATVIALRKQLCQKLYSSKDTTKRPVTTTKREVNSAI


How the values were obtained:
[1] = target: T1, hPD-L2-His …; assay: ELISA, coated hPD-L2-His
[2] = target: T2, 人PD-L2，稳定表达于U2OS细胞系 (PD-L2-U2OS); assay: cell-based or functional assay
[3] = target: T2, 人PD-L2，稳定表达于U2OS细胞系 (PD-L2-U2OS); assay: flow cytometry on PD-L2-U2OS cells

Binder	EC50 [1] [µg/mL]	IC50(ng/mL), 化学发光信号, 基于细胞的抗体阻断分析 [2] [ng/mL]	EC50 [3] [µg/mL]
人源化24A3-1.1抗体 (antibody, human IgG1, kappa, V domains shown, human IgG1 / human kappa; also called Hz24A3-1.1) VH: QVQLVQSGAEVKKPGASVKVSCKASGYAFTNYLIEWVRQAPGQGLEWMGVINPVNGGISYAQKFQGRVTMTADKSTSTVYMELSSLRSEDTAVYYCARSGGNYGGDYWGQGTLVTVSS VL: DVVMTQSPDSLAVSLGERATISCKASQSVSNEVAWYQQKPGQPPKLLIYYASHRYTGVPDRFSGSGSGTDFTLTISSLQAEDVAVYYCQQHFSSPLTFGQGTKVEIKR	0.167	1950	1.05
人源化14E7-1.1抗体 (antibody, human IgG1, kappa, V domains shown, human IgG1 / human kappa; also called Hz14E7-1.1) VH: QVQLVQSGAEVKKPGASVKVSCKASGYSFTSYWMHWVRQAPGQGLEWMGMIDPSDSETRYAQKFQGRVTMTVDKSTSTVYMELSSLRSEDTAVYYCARWALQYFDYWGQGTLVTVSS VL: DIQMTQSPSTLSASVGDRVTITCKASQNVGAAVAWYQQKPGKAPKLLIYSASNRYPGVPSRFSGSGSGTEFTLTISSLQPDDFATYYCQQYRPYPFTFGQGTKVEIKR	0.115	112	0.443
人源化14E7-1.2抗体 (antibody, human IgG1, kappa, V domains shown, human IgG1 / human kappa; also called Hz14E7-1.2) VH: QVQLVQSGAEVKKPGASVKVSCKASGYSFTSYWMHWVRQAPGQGLEWMGMIDPSESETRYAQKFQGRVTMTVDKSTSTVYMELSSLRSEDTAVYYCARWALQYFDYWGQGTLVTVSS VL: DIQMTQSPSTLSASVGDRVTITCKASQNVGAAVAWYQQKPGKAPKLLIYSASNRYPGVPSRFSGSGSGTEFTLTISSLQPDDFATYYCQQYRPYPFTFGQGTKVEIKR	0.0333	2660	–
人源化25G4-1.1抗体 (antibody, human IgG1, kappa, V domains shown, human IgG1 / human kappa; also called Hz25G4-1.1) VH: QVQLVQSGAEVKKPGASVKVSCKASGYTFTTNWMNWVRQAPGQGLEWMGRIDPSDSETHYAQKFQGRVTMTVDKSTNTVYMELSSLRSEDTAVYYCVREGIYGPWFAYWGQGTLVTVSS VL: DIQMTQSPSSLSASVGDRVTITCRASESVDNYGISLMHWYQQKPGKAPKLLIYRASDLESGVPSRFSGSGSRTDFTLTISSLQPEDFATYYCQQSDKDPPTFGQGTKVEIKR	0.0689	1000	0.483
人源化7A7-1.1抗体 (antibody, human IgG1, kappa, V domains shown, human IgG1 / human kappa; also called Hz7A7-1.1) VH: QVQLVQSGAEVKKPGASVKVSCKASGYSFSGYTMNWVRQAPGQGLEWMGLISPYNGVTTYAQKFQGRVTMTVDTSTNTVYMELSSLRSEDTAVYYCARGVTVPLRFDVWGQGTLVTVSS VL: DIQMTQSPSSLSASVGDRVTITCKSSQSLLNSGNQKNYLTWYQQKPGKAPKLLIYWASTRESGVPSRFSGSGSGTDFTLTISSLQPEDFATYYCQNDDSYPLTFGQGTKVEIKR	0.308	585	0.613
人源化7A7-2.1抗体 (antibody, human IgG1, kappa, V domains shown, human IgG1 / human kappa; also called Hz7A7-2.1) VH: QVQLVQSGAEVKKPGASVKVSCKASGYSFSGYTMNWVRQAPGQGLEWMGLISPYNGVTTYAQKFQGRVTMTVDTSTNTVYMELSSLRSEDTAVYYCARGVTVPLRFDVWGQGTLVTVSS VL: DIQMTQSPSSLSASVGDRVTITCKSSQSLLQSGNQKNYLTWYQQKPGKAPKLLIYWASTRESGVPSRFSGSGSGTDFTLTISSLQPEDFATYYCQNDDSYPLTFGQGTKVEIKR	1.12	144	0.924
人源化7A7-1.2抗体 (antibody, human IgG1, kappa, V domains shown, human IgG1 / human kappa; also called Hz7A7-1.2) VH: QVQLVQSGAEVKKPGASVKVSCKASGYSFSGYTMNWVRQAPGQGLEWMGLISPYQGVTTYAQKFQGRVTMTVDTSTNTVYMELSSLRSEDTAVYYCARGVTVPLRFDVWGQGTLVTVSS VL: DIQMTQSPSSLSASVGDRVTITCKSSQSLLNSGNQKNYLTWYQQKPGKAPKLLIYWASTRESGVPSRFSGSGSGTDFTLTISSLQPEDFATYYCQNDDSYPLTFGQGTKVEIKR	0.68	374	0.833

More lines, now with the values ahead:

EC50 [1] [µg/mL]	IC50(ng/mL), 化学发光信号, 基于细胞的抗体阻断分析 [2] [ng/mL]	EC50 [3] [µg/mL]	Binder
0.223	1420	0.62	人源化24A3-1.2抗体 (antibody, human IgG1, kappa, V domains shown, human IgG1 / human kappa; also called Hz24A3-1.2) VH: QVQLVQSGAEVKKPGASVKVSCKASGYAFTNYLIEWVRQAPGQGLEWMGVINPVQGGISYAQKFQGRVTMTADKSTSTVYMELSSLRSEDTAVYYCARSGGNYGGDYWGQGTLVTVSS VL: DVVMTQSPDSLAVSLGERATISCKASQSVSNEVAWYQQKPGQPPKLLIYYASHRYTGVPDRFSGSGSGTDFTLTISSLQAEDVAVYYCQQHFSSPLTFGQGTKVEIKR
0.0874	700	–	人源化25G4-1.2抗体 (antibody, human IgG1, kappa, V domains shown, human IgG1 / human kappa; also called Hz25G4-1.2) VH: QVQLVQSGAEVKKPGASVKVSCKASGYTFTTNWMNWVRQAPGQGLEWMGRIDPSESETHYAQKFQGRVTMTVDKSTNTVYMELSSLRSEDTAVYYCVREGIYGPWFAYWGQGTLVTVSS VL: DIQMTQSPSSLSASVGDRVTITCRASESVDNYGISLMHWYQQKPGKAPKLLIYRASDLESGVPSRFSGSGSRTDFTLTISSLQPEDFATYYCQQSDKDPPTFGQGTKVEIKR
–	680	0.54	嵌合25G4抗体 (antibody, human IgG1, kappa, V domains shown, also called Xi25G4) VH: QVQLQQPGVEVVRPGAPVKLSCKASGYTFTTNWMNWVKQRPGRGLEWIGRIDPSDSETHYNQQFKDKATLTVDKSSNTAYIQLSSLTSEDSAVYYCVREGIYGPWFAYWGQGTLVTVSA VL: DIVMTQSPASLAVSLGQRATISCRASESVDNYGISLMHWYQQKPGQPPKLLIYRASDLESGIPARFSGSGSRTDFTLTINPVETDDVATYYCQQSDKDPPTFGAGTKLELKR
–	–	0.43	嵌合7A7抗体 (antibody, human IgG1, kappa, V domains shown, made in Expi-CHO; also called Xi7A7) VH: EVQLQQSGPELVKPGASMKISCKASGYSFSGYTMNWVKQSLGKNLEWIGLISPYNGVTTYNQKFKGKASLTVDTSSNTAYMELLSLTSDDSAVYYCARGVTVPLRFDVWGAGTPVTVSS VL: DIVMTQSPSSLTVTTGEKVTMSCKSSQSLLNSGNQKNYLTWYQQKTGQPPKLLIYWASTRESGVPDRFTGSGSGTDFTLTINNVQAEDLAVYYCQNDDSYPLTFGAGTKLELKR
–	221	0.967	嵌合24A3抗体 (antibody, human IgG1, kappa, V domains shown, also called Xi24A3) VH: QVQLQQSGAEVVRSGTSVKVSCKASGYAFTNYLIEWVKQRPGQGLEWIGVINPVNGGISYNEKFKGKATLTADKSSSTVYMQLSSLTSDDSAVYFCIRSGGNYGGDYWGQGTTLTVSS VL: DVVVTQTPKFLPVTAEDRVTITCKASQSVSNEVAWYQQKPGQSPKLLIYYASHRYTGVPDRFTGSGSGTDFTFTISSVQVEDLAVYFCQQHFSSPLTFGAGTKLELKR
–	342	1.12	嵌合14E7抗体 (antibody, human IgG1, kappa, V domains shown, also called Xi14E7) VH: QVQLQQSGPQLVRPGASVKISCKASGYSFTSYWMHWVKQRPGQGLDWIGMIDPSDSETRLNQKFKDKATLTVDKSSSTAYMQLSSPTSEDSAVYYCARWALQYFDYWGQGTTLTVSS VL: DIVMTQSQKFMSTTVGDRVSITCKASQNVGAAVAWYQQKPGQSPKLLIYSASNRYPGVPDRFTGSGSGTDFTLTISNMHSEDLADYFCQQYRPYPFTFGGGTKLEIKR
